Earlier results on two substances are cited in paper PMC4067574.

Where two headings read alike, the source gives them in different places.

Data set [1] addresses C3b C3b (Homo sapiens) (UniProt P01024).
Data set [2] shares this target. This is another data set of the same source.

Chain of C3b C3b (Homo sapiens) (P01024 566-670): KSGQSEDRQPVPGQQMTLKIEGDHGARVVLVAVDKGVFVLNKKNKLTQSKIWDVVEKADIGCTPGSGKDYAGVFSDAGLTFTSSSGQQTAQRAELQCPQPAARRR
Chain of complement factor H rFH1-4 N-terminal modules 1-4 (P08603 19-264): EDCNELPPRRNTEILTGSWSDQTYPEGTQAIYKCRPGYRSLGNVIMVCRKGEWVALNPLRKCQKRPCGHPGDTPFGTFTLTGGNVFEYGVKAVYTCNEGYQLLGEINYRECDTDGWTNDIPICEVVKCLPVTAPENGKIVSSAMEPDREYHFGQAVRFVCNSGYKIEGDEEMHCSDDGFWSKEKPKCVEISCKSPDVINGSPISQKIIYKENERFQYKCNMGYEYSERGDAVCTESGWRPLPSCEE
Chain of complement factor H C-terminal fragment C-terminal two modules (P08603 1103-1231): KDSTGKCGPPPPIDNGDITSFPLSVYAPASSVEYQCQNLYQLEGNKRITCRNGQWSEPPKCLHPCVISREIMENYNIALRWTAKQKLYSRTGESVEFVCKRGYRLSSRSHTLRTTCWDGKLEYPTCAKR

Regarding “complement factor H rFH1-4 N-terminal modules 1-4 (from UniProt P08603)”, the Kd in data set [1] was 10 µM.
In the case of “complement factor H C-terminal fragment C-terminal two modules (from UniProt P08603)”, the dissociation constant Kd in data set [2] is 4 µM.
